Data taken from the nanobody polyreactivity screen of Harvey et al. (2022).

Experiment: yeast display, Sf9 membrane polyspecificity reagent, FACS + sequencing; frameworks hold sequencing errors
Method in brief: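 Nanobodies came from a synthetic yeast display library in Saccharomyces cerevisiae BJ5465, induced with galactose for 36–48 hours and stained for 1 hour at 4 °C with 10% biotinylated, detergent-solubilized Sf9 membrane reagent. Cells were enriched on streptavidin microbeads and then FACS-sorted, with low and high (top ~1%) gates set on anti-HA fluorescence for expression and streptavidin fluorescence for reagent binding. Each polyreactivity label reflects the gate a clone came from. Genes were amplified by colony PCR, sequenced by MiSeq 2 × 250 and filtered by CDR length.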

Row | Sequence | polyreactivity (PSR sort gate)
1 | QVQLVESGGGLVHAGGSLRLSCAPSGSTFFTNAMGWYRQAPGKERELVAAITINDGSTFYADSVKGRFTISRDNAKNTVYLQMNSLKQEDTAVYYCNADGVDLYDYWGQGTQVTVSS | low polyreactivity
2 | QVQLVESGGGLVHAGGSLRLSCASSGSTFFTNAMGWYRQAPGKERELVAAITINDGSTFYADSVKGRFTISRDNAKNTVYLQMNSLNPEDTAVYYCNADGVDLYDYWGQCTQVTVSS | low polyreactivity
3 | QVQLVESGGGLVHAGGSLRLSSAASGRTFLSYTMGWYRQAPGKERELVAVISRSGGRTYYADSVKGRFTISRDNATNTVYLQMNSLKPEDTADYYCAADTYRGYDFDYWGQGSQVTVSS | high polyreactivity
4 | QVQLVESGGGLVHAGGSLRLSSAASGSIYYYAMGWYRQAPGKERELVAAITWRGGRTYYADSVKGRFTISRDNAKNNVYLQMNILKPEDTAVYYCNDVAPGKYNHWGQGTQVNVSS | high polyreactivity
5 | QVQLVESGGGLVHAGGSLRLTCAASGLTFAYYAMGWYRQAPGKERELVAAISWNGGRTYNADSVKGRFTISRDNAKNTVYLQMNSLKPEDTAVYYCAAQVTSSFYWGQGTQVTVSS | high polyreactivity
6 | QVQLVESGGGLVHAGGSLRLTCAASGRTYRNGMGWYRQAPGKERELVAAISVSGTRTYYADSVKGRFTISRDNAKNTVYLQMNSLKPEDTAVYYCNADLSPTADDELDYRLVRDDYWGQGTQVTVSS | low polyreactivity
7 | QVQLVESGGGLVHAGGSLSLSCAASGSIFGQYAMGWYRQAPGKERELVAAISYSTDARTYYADSVKGRFTISRDNAKNTVYLQMNSLKPEDTAVYYFNADSYFGYWGQGTQVTVSS | low polyreactivity
8 | QVQLVESGGGLVHAGGSLSLSCAASGYTFPLYAMGRYRQAPGKERELVADNNIGGASTYYADSVKGRFTISRDNAKNTVYLQMNSLKPEDTAVYYCAKEDYDGYFPTFDYDYWGQGTQVTVSS | low polyreactivity
9 | QVQLVESGGGLVHAGRSLRLSCAPSGSTFSIYDMGWSRQAPGKERELVAAISGSGSRTYYADSVKGRFTISRDNAKNTVYLQMNSLKPEDTALYYCAARGRHRDGFDFNYWGQGTQVTVSS | high polyreactivity
10 | QVQLVESGGGLVHPGGRLRLSCAASGRIYKYYVMGWYRQAPGKEREFVAAISGRGGRTYYADSVKGRFTISRDNAKNTVYLQKNSLKPEDTAVYYCATERQDRGPLGYNYWGQGTQVTVSS | high polyreactivity
11 | QVQLVESGGGLVHPGGSLRLSCAASGRTYAVDAMGWYRQAPGKERELVAAISRRGGSTSYADSEKGRFTISRDNAKNTVSLQMNSLKPEDTAVYYCNTDPGKFTPFDYWGQGTQVTVSS | high polyreactivity
12 | QVQLVESGGGLVKAGGILRLSCAASGFNFSSYAMGWYIPAPGKERELVAAISGSGGTTYYADSVKGRFTISRDNAKNTVYLQLNSLKPEDTAVYYCATRLGLVITKYGYDYWGQGTQVTVSS | high polyreactivity
13 | QVQLVESGGGLVKAGGSLLLSCAASGIIFRRNAMGRNIQAPGKERELVAAISSSKGRTYYADSVKGRFTISRDNAKNTVYLQMNSLKPEDTAVYYCTADYDASARGWGQIAYVYWGQGTQVTVSS | low polyreactivity
14 | QVQLVESGGGLVKAGGSLRISCAASGFILGQYAMGWYRQAPGKERELVAAISRSSSTTYADSVKGRFTISRDKAKNTVYLQMNSLNPEDTAVYYCAAYYWYVTYFRREIAYEYWGQGTQVTVSS | low polyreactivity
15 | QVQLVESGGGLVKAGGSLRITCAASGRIFGYYPMGWYRPATGKESELVAAITRRGGITYYADSVKGRFTISRDNAKNTVYLPMNCLKPADTAVYYRAADRYWGYDYWGQGTQVTGSS | high polyreactivity
16 | QVQLVESGGGLVKAGGSLRLSCAASGFSFFGYAMGWYRQAPGKERELVAAIDNGGSTNYADSVKGRFTISRDNAKNTVYLQMNSLKPEDTAVYYCNTDVDYAILDYWGQGTQVTVSS | low polyreactivity

Row | Sequence | polyreactivity (PSR sort gate)
17 | QVQLVESGGGLVKAGGSLRLSCAASGFTFWRNTMGWYRQAPGKERELVAAIDRSGSSTYYADSVKGRFTISRDNATNNVYFQMNSLKPEDTAVYYCAADHTYFTAYGDYWGQGTQVTVSS | low polyreactivity
18 | QVQLVESGGGLVKAGGSLRLSCAASGFTLSRYTKGWYRQAPGKEWELVAAISWSGGSTYYADSVKGRFTISRDNAKNTVYLQMNSLKPEDSAVYYCAARYHYYGLYTSGDYYWGQGTQVTVSS | high polyreactivity
19 | QVQLVESGGGLVKAGGSLRLSCAASGIIMSYYVMGWYIQAPGKERELVAAISLRGGTTYYADSEKGRFTISRDNAKNTVYLQKNSLKPEDTAVYYCAAQRPGFGYEYDYWGQGTQVTVSS | high polyreactivity
20 | QVQLVESGGGLVKAGGSLRLSCAASGITCTKNAMGWYRQAPGKERELVAAISTSGGSTYYADSVKGRFTISRDTAKNTVYLQMTSLKPEDTAVYYCAARAVIRGGRYFYWGQGTLVTVSS | high polyreactivity
21 | QVQLVESGGGLVKAGGSLRLSCAASGITFRKYAMGWYRQAPGKERELVAAITAGGGRTFYADSVKGRFTISRDNAKNTVYLQMNSLKPEDTAVYYCNADLGIGYDYWGQGTQVTVSS | high polyreactivity
22 | QVQLVESGGGLVKAGGSLRLSCAASGLILYRYVMGWYRQAPGKERELVAAISSSGGRTYYADSVKGRFTISRDIAKNTVYLQMNSMKPEDTAVYYCAKRRSDARRGYDYWGQGTQVTVSS | high polyreactivity
23 | QVQLVESGGGLVKAGGSLRLSCAASGRIDSTYAMGWSRQAPGKERDLVAAINKIGGSTYYADSVKGRFTISRDNEKNTVYLQMNSLKPEDTAVYYCAADAPYYPVRRYYYWGQGTQVTVSA | low polyreactivity
24 | QVQLVESGGGLVKAGGSLRLSCAASGRIFNWYVMGWSRQAPGKERELVAAISWGSGNTYYADSVKGRFTISRDNAKNTVYLQMNSLKPEDTAVYYCNKVRSYRSWRGKYDYWGQGTQVTVSS | high polyreactivity
25 | QVQLVESGGGLVKAGGSLRLSCAASGRIFYNFSMGWSRQAHGKERELVAAISGSGGSTYYADSVKGRFTISRDNAKNTVYLQMNSLKPEDTAVYYCSTSGPQYYSRNFDYWGQGTQVTVSS | low polyreactivity
26 | QVQLVESGGGLVKAGGSLRLSCAASGRNFNYYAMGWYTQAPGKERELVAAIRSGGSTYYADSVKGRFTISRDNAKYTVYFQMNSLKPEDTAVYYCAKSMSSDAYDSWGQGTKVTVSS | low polyreactivity
27 | QVQLVESGGGLVKAGGSLRLSCAASGSIFNRYAMGWYRPAPGKEREFGARISKRGGGTYYADSVKGRFTISRDNAKNPVYLQMNRLKPEDTAVYYCNAGVPSAMDYCGQGTQVTVSS | high polyreactivity
28 | QVQLVESGGGLVKAGGSLRLSCAASGSTFGLYVMGWYRQAPGKERELVAAINRIGSRTYYADSVKGRFTISRDNAKNTVYLQMNSLKPEDTAVYYCAADYDYTSPGDDYWGQGTQVTVSS | high polyreactivity
29 | QVQLVESGGGLVKAGGSLRLSCAASGSTFQWYAMGWYRQAPGKERELVAAINKSGGTTYYADSVKGRFTISRDNAKNSVYLQMNSLKPEDTAVYYCATDNPVVYQPGNMDYWGQGTQVTVSS | low polyreactivity
30 | QVQLVESGGGLVKAGGSLRLSCAASGSTFRPYAMGWYRPAPGKERELVAAITSRGGSTYYADSVKGRFTISRDNAKNTVSLQMNSLKPEDTAVYYCAASYEVVASSYRYYYWGQGTQVTVSS | high polyreactivity
31 | QVQLVESGGGLVKAGGSLRLSCAASGSTSPFNAMGWYRQAPGKERELVAAITSGGSTHYADSVKGRFTISRDNAKNTVYLPMNRLKPEDSAVYYCAAEPVAYYGSSYGYWGQGTQVNVSS | low polyreactivity
32 | QVQLVESGGGLVKAGGSLRLTCAASGRIFGPYVMGWYRQAPGKERELVAAISTSGTSTYYADSVKGRFTISRDNAKNTVYLQMNSLKPEDTAVYYCAKRSGARHRLMDYWGQGTQVTVSS | low polyreactivity
